Target: the molecule itself
Experiment: self-association; SDS-PAGE under reducing (Mr 26,900) versus non-reducing (Mr 114,000) conditions

B1: Rtms-5 colored protein tagged with hexahistidine at its C-terminus (other)
chain: SVIATQMTYKVYMSGTVNGHYFEVEGDGKGKPYEGEQTVKLTVTKGGPLPFAWDILSPQCQYGSIPFTKYPEDIPDYVKQSFPEGFTWERIMNFEDGAVCTVSNDSSIQGNCFTYHVKFSGLNFPPNGPVMQKKTQGWEPHSERLFARGGMLIGNNFMALKLEGGGHYLCEFKTTYKAKKPVKMPGYHYVDRKLDVTNHNKDYTSVEQCEISIARKPVVAHHHHHH
notes: also called RTms-5.pep; Rtms5.pep
- binding result: binds

Reference: patent US20060107351A1 (FLORIGENE, published 2006)
